Results on two substances are retold here after patent publication US20050027104A1.

Test [1] addresses human IgD (probe or solid phase; preparation not specified at the place) (human) (UniProt P01880). Description: SDS-PAGE and Western blot with IgD after 60 C treatment, densitometry, 6 experiments; reference: monomeric MID962-1200. (A western blot detects proteins with antibodies after separation by electrophoresis.)
The target of test [2] is One of the two myelomas (purified IgD(κ) or IgD(λ); which one is not stated). Description: dot blot, purified MID in dilutions on membrane, IgD myeloma protein as probe.
The target of test [3] is surface-expressed B cell receptor (BCR) IgD on human CD19+ peripheral blood lymphocytes (human) (UniProt P01880). Description: flow cytometry, MID-FITC on PBLs incubated with the pre-immune serum (no blocking).
Test [4] has the same target. Kind of test: flow cytometry, MID-FITC on PBLs preincubated with rabbit anti-human IgD immunoglobulin fraction (competitor).

Sequence of UniProt P01880 (P01880 whole entry): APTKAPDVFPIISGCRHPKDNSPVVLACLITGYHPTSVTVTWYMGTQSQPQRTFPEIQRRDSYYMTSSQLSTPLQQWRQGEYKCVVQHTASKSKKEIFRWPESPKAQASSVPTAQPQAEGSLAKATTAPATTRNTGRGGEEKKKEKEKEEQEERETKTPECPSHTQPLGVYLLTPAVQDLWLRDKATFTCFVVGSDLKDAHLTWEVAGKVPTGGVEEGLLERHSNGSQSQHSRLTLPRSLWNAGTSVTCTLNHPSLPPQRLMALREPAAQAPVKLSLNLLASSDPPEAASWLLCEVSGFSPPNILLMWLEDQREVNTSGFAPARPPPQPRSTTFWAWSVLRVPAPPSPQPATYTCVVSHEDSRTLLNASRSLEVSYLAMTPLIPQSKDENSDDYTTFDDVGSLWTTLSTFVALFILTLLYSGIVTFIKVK

In test [1], MID962-1200 (F2), tetrameric form gave a fold more efficient binding to IgD than the monomeric form of 23 fold.
In test [2], “MID, IgD-binding surface exposed protein purified from Moraxella catarrhalis strain Bc5 (native full length MID1-2139)” gave a least amount of MID detected on the membrane of 0.001 µg. Also, the Mean fluorescence intensity (arbitrary units) was 79.2 in test [3] and 14.6 in test [4].
